1 molecule from publication PMC6433865, “The cochaperone CHIP marks Hsp70- and Hsp90-bound substrates for degradation through a very flexible mechanism” (Scientific Reports, 2019) can be followed below.

One experiment deals with T1, Hsp70 (human (by the printed Entrez Gene code), UniProt P0DMV8 1-641).
T1 construct: Hsp70, Entrez Gene code 3303, cloned in pQE-30; Removal of the His tag is told only for CHIP, UbcH5a, Bag1s and p53DBD, not for Hsp70; source: E. coli, expressed at 16 °C overnight, purified (Ni-NTA, Superdex 200)
T1 sequence (P0DMV8 whole entry): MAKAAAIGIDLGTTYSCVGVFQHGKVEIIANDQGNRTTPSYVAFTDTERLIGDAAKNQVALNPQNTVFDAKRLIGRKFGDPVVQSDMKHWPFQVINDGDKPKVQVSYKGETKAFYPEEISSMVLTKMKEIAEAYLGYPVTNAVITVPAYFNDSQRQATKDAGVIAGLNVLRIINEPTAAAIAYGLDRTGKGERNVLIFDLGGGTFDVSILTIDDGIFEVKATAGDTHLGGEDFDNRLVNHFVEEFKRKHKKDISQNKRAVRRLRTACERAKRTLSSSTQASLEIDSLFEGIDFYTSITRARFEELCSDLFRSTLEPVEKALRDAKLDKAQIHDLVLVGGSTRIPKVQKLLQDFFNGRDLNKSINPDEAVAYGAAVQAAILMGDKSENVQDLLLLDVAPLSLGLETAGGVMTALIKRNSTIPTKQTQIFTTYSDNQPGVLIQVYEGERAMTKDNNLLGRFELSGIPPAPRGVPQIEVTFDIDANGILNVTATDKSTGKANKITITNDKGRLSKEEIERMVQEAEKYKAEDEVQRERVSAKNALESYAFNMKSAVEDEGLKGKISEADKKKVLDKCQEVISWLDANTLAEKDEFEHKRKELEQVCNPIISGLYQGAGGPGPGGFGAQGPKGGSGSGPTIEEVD
The experiment is described as follows: cryo-EM structure; ternary complexes after GraFix, vitrified; Titan Krios 300 kV (Hsp70:p53-TMGST:CHIP, 15 Å) or Talos Arctica 200 kV (Hsp90:p53-TMGST:CHIP, 13 Å); atomic structures docked. The settings on record: both partners purified.

For the next experiment, the target named is T2, Hsp90 (human, UniProt P07900 1-732).
T2 construct: Homodimer; also called hHsp90; source: E. coli, induced at 30 °C (4 h), purified (Ni-NTA, Superdex 200)
Nature of the experiment: negative-stain electron microscopy, 3D reconstruction; complexes stabilised and isolated by GraFix (10-30% glycerol gradient, 0.15% glutaraldehyde), stained with 2% uranyl acetate, JEOL JEM1010 at 80 kV; atomic structures docked into 19-26 Å volumes. The settings on record: both partners purified.

B1: C terminus of Hsc70-interacting protein (CHIP) (enzyme, human, UniProt Q9UNE7 1-303, looked up)
chain: MKGKEEKEGGARLGAGGGSPEKSPSAQELKEQGNRLFVGRKYPEAAACYGRAITRNPLVAVYYTNRALCYLKMQQHEQALADCRRALELDGQSVKAHFFLGQCQLEMESYDEAIANLQRAYSLAKEQRLNFGDDIPSALRIAKKKRWNSIEERRIHQESELHSYLSRLIAAERERELEECQRNHEGDEDDSHVRAQQACIEAKHDKYMADMDELFSQVDEKRKKRDIPDYLCGKISFELMREPCITPSGITYDRKDIEEHLQRVGHFDPVTRSPLTQEQLIPNLAMKEVIDAFISENGWVEDY
notes: human CHIP (hCHIP), Entrez Gene code 10273, cloned in pPROEX HTa; Homodimer, seen as an asymmetric triangular dimer in all reconstructions; also called hCHIP; source: E. coli, induced at 30 °C (4 h), purified (Ni-NTA, TEV cleavage, second Ni-NTA, Superdex 200)
In the case of B1, the binding result with Hsp70 and with Hsp90 was “binds” each time.
